The target in the experiment is Y925F-FAK (nonphosphorylatable mutant of FAK/YCam) (human, UniProt Q05397 1-1052, Y925F). As to the kind of experiment: co-IP.
Sequence of Y925F-FAK (nonphosphorylatable mutant of FAK/YCam) (Q05397 whole entry Y925F): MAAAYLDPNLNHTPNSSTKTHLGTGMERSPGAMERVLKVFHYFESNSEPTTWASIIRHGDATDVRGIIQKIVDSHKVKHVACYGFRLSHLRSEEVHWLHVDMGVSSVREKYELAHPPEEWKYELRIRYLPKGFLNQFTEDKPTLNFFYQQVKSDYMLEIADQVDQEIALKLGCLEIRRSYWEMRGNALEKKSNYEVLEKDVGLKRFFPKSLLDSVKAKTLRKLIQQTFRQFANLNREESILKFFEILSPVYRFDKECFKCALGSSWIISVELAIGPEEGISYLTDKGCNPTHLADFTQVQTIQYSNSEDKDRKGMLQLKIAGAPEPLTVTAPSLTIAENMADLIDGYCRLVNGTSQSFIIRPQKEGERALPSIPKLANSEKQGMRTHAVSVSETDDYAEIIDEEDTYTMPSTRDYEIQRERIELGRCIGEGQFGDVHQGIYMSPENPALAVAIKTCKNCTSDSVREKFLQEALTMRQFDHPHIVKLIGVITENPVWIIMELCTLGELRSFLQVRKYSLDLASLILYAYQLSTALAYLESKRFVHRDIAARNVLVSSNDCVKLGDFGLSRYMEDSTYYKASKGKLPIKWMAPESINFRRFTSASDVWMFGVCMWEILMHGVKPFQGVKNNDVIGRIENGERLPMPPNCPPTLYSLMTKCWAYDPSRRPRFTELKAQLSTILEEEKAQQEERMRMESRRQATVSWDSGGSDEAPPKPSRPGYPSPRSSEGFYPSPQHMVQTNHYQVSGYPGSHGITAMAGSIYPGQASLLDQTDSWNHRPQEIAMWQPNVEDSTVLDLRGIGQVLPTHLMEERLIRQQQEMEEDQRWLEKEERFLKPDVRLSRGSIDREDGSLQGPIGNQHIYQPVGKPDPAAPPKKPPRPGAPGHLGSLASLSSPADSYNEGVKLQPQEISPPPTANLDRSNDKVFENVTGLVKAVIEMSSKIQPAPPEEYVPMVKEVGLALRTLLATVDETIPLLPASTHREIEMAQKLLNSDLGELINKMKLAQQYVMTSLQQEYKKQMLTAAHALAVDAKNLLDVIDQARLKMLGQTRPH

B1: paxillin (natural protein)
chain: not shown
On to B1, for which the “fold change of co-precipitated paxillin against wild-type FAK or Y925E-FAK” value was 3 fold.

For the origin of these results see article PMC3069021 (Molecular Biology of the Cell, 2011).
